{
  "source": "paper PMC9896561",
  "binders": {"B1": {"name": "DAS1M (structured_DNA)", "DNA": "ATCTCGACTAGTCAGTCTCCCCAGCTAAAAAAAAAAAAAGTTGGGGAAAAAAAAAATCCGAATGTCTCGGAT", "modifications": "5' phosphate"}},
  "molecular_target": "T1, T4 DNA ligase (T4DL) (UniProt P00970 1-487)",
  "T1 sequence": "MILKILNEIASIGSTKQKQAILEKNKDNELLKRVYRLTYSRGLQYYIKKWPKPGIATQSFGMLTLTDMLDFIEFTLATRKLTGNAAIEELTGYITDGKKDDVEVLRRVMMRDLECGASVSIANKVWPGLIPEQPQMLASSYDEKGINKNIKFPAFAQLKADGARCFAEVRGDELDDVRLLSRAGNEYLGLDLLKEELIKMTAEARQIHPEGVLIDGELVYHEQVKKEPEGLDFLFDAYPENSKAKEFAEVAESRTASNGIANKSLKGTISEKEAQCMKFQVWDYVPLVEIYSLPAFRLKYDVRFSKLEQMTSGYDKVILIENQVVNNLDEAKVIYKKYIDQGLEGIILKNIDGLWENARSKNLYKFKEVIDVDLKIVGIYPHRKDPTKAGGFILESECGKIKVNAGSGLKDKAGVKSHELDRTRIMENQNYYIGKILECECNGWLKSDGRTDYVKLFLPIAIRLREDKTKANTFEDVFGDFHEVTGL",
  "test": "fluorescence anisotropy",
  "data": [
    {"binder": "B1", "values": [
      {"measurement": "Kd", "result": "1270 ± 300", "unit": "nM"}
    ]}
  ]
}
